# B1: DBP35opt: optimized DBP35 combining R33N, K18V and P42Q; sequence matches Table 1 row SEQ ID NO: 50, DNA target B (protein)
# chain: GFGRAVKEKRKELGLTQVEFAEKAGLSRRTIINIERGYIVPQKATKEKIAKALGTSVEELEQA
# B2: DBP57: designed DNA-binding protein, SEQ ID NO: 31, DNA target E (protein)
# chain: MVLTPMERIGEFIKRARREAGLTQRELAELAGVGQSTVSRIEKGEKCSPELVEKILEALRKV
# Legend:
# [1] = tested on: DBP48-TetR (synthetic construct); assay: cell_activity; conditions: E. coli YFP NOT gate, 1 mM IPTG
# [2] = tested on: DBP57-TetR (synthetic construct); assay: cell_activity; conditions: E. coli YFP NOT gate, 1 mM IPTG
# 13 unique dsDNA targets = assay: All-by-all yeast surface display screen of DBP design hits; format: binding
# Protocol: And an all-by-all screen of DBP design hits to 13 unique dsDNA targets was performed (FIG. 4, table 2). […] To try to understand these observed binding preferences, each tested DNA sequence was threaded onto each design complex model at all possible base pair alignments, the alternative complex models were relaxed with Rosetta™, and the model with the most favorable Rosetta™ ΔΔG was selected.
# Saccharomyces cerevisiae EBY100 strain cultures were grown in C-Trp-Ura medium supplemented with 2% (w/v) glucose. For induction of expression, yeast cells were centrifuged at 6,000 g for 1 min and resuspended in SGCAA medium supplemented with 0.2% (w/v) glucose at the cell density of 1×10^7 cells per ml and induced at 30° C. for 16-24 h. Cells were washed with PBSF (PBS with 1% (w/v) BSA) and labeled with biotinylated targets using two labeling methods: with-avidity and without-avidity labeling. For the with-avidity method, the cells were incubated with biotinylated target, together with anti-c-Myc fluorescein isothiocyanate (FITC, Miltenyi Biotech) and streptavidin-phycoerythrin (SAPE, ThermoFisher). The concentration of SAPE in the with-avidity method was used at one-quarter of the concentration of the biotinylated targets. For the without-avidity method, the cells were first incubated with biotinylated targets, washed and secondarily labeled with SAPE and FITC.
# (§1) For yeast display characterization of individual designs, including competition assays, DNA sequences encoding the proteins of interest were purchased as Integrated DNA Technologies (IDT) E-Blocks™, transformed into yeast cells, and incubated in 96 well culture plates. Labeling with biotinylated dsDNA targets and SAPE/FITC was performed in a 96 well plate format. For yeast display competition assays, labeling was performed without avidity using 1 μM biotinylated dsDNA duplex oligos and an excess of 8 μM non-biotinylated competitor dsDNA duplex oligos. […] Flow cytometry analysis was performed with an Attune NxT™ flow cytometer with autosampler. Flow cytometry data analysis was performed using custom python code and the CytoFlow™ python package. For each individual sample, gating of the expression population was performed using the CytoFlow™ Gaussian Mixture Model and the ratio of SAPE channel intensity to FITC channel intensity (binding signal/expression signal) was calculated for all gated expression events of the sample.
# [3] = tested on: synTF-specific cis-regulatory elements (CRE) in HEK293T cells; assay: Transcriptional activation by synTFs in HEK293T cells (ENGRAM); format: cell-based; conditions: DBP fused to GCN4 dimerization domain and VP64; HEK293T cells expressing PEmax; dependent on spacing between motifs
# Text: Next, we investigated whether the DBPs can be used as activators in mammalian cells. A set of synthetic transcription factors (synTFs) were created by fusing the GCN4 dimerization domain and the VP64 activation domain to the C-termini of DBPs 9, 35opt, 48, 57, and 60 which recognize 3 unique motifs. The dimerization domain allows the DBPs to recognize a palindromic target sequence consisting of two binding motifs, improving the binding affinity to the DNA sequence (FIG. 2C). We created synTF specific cis-regulatory elements (CRE) with 4 repeats spaced by 6 bp to drive the expression of downstream genes, and used the ENGRAM (43) recording technology to measure the activity of the synTFs in HEK293 cells. In ENGRAM, each CRE drives the expression of a uniquely barcoded pegRNA, which upon expression is recorded into the DNA TAPE at the HEK3 locus by prime-editor (PEmax); the activity of individual synTFs can be measured as the abundance of the barcode on the DNA TAPE (FIG. 2C). We first tested 3 different spacings-1 bp, 3 bp, and 5 bp-between the palindromic binding motifs to maximize the recorder activity. 3 synTF specific recorders and 1 TCF-LEF-recorder (negative control) were mixed with ratio 2:2:2:1 and co-transfected with synTFs into the HEK293T cells expressing PEmax. Cells were harvested and analyzed 2 days post-transfection. After analyzing the barcode abundance on the DNA TAPE, we observed 3-5 fold activation for DBP9/DBP35 and DBP57/DBP60 (FIG. 2D).
# HEK293T cells expressing PEmax™ were cultured in DMEM High glucose (GIBCO), supplemented with 10% Fetal Bovine Serum (Rocky Mountain Biologicals) and 1% penicillin-streptomycin (GIBCO). Cells were grown with 5% CO2 at 37° C. 1×10^5 cells were seeded on a 48-well plate a day before transfection. Enhancer plasmid and binder plasmid were mixed with a ratio of 2:1. Enhancer variants and background control were mixed with a ratio of 2:2:2:1. A total of 300 ng of plasmid were transfected using Lipofectamine™ 3000 (ThermoFisher, L3000015), following the manufacturer's protocol. Cells were harvested 2 days post-transfection. Genomic DNA was extracted based on the protocol described earlier (43). Briefly, cells were lysed using freshly prepared lysis buffer (10 mM Tris-HCl, pH 7.5; 0.05% SDS; 25 µg/ml protease (ThermoFisher)) for each well. The genomic DNA mixture was incubated at 50° C. for 1 h, followed by an 80° C. enzyme inactivation step for 30 min. The DNA TAPE was amplified from the genomic DNA directly for next generation sequencing. Recorded information was extracted via custom analysis code. Each enhancer has a unique barcode representing its activity. Transcription activation was measured as the fold change in the barcode abundance relative to the negative control barcode. All measurements were performed in triplicates.
# [4] = tested on: biotinylated target dsDNA with non-biotinylated competitor dsDNA; assay: Yeast display competition assay with base-substituted competitor dsDNA; format: binding
# Text: We used a yeast display competition assay to characterize the DNA binding site specificity of a subset of the designs (FIG. 1A-E, left; FIG. 5). Addition of non-biotinylated competitor dsDNA to biotinylated target sequence reduced binding signal by flow cytometry (FIG. 1A-E, middle). […] For example, in DBP6 (FIG. 1A) R31 and R36 in the design model form bidentate hydrogen bonds with the guanines of base pair positions G12 and C9, respectively, while T32 forms a hydrogen bond with C10.
# as §1
# [5] = tested on: biotinylated dsDNA oligo (designed DNA target); assay: Clonal yeast surface display binding to biotinylated dsDNA oligo
# Text: For each set of designs, synthetic oligonucleotides (230 base pairs) encoding the 50-65-residue designed proteins were ordered in a single pool and cloned into a yeast surface-expression vector. Cells containing designs that bound each DNA target were enriched by several rounds of fluorescence-activated cell sorting (FACS) using fluorescently labeled target dsDNA oligos. The naive and sorted populations for each DNA target were deep sequenced, and the frequency of each design in the starting population and after each sort was determined. From this analysis, we identified 97 designs that were substantially enriched (>100×) in pools sorted with their intended dsDNA target compared to the naive library. […]
# For yeast display characterization of individual designs, including competition assays, DNA sequences encoding the proteins of interest were purchased as Integrated DNA Technologies (IDT) E-Blocks™, transformed into yeast cells, and incubated in 96 well culture plates. […] For each individual sample, gating of the expression population was performed using the CytoFlow™ Gaussian Mixture Model and the ratio of SAPE channel intensity to FITC channel intensity (binding signal/expression signal) was calculated for all gated expression events of the sample.
# [6] = tested on: synthetic promoter containing the designed DBP binding sites controlling YFP; assay: Transcriptional repression assay (NOT gate, YFP) in E. coli; format: cell-based, Escherichia coli; conditions: IPTG induction (1 mM), flow cytometry
# Text: We next tested the ability of the designed DBPs to function in cells to regulate transcription. We constructed candidate NOT gates (38) to assay transcriptional repression in Escherichia coli, where the input is a designed DBP under control of the IPTG-inducible PTac promoter and the output is yellow fluorescent protein (YFP) expression driven by a promoter incorporating each DBP's DNA binding site. […] To increase avidity and bulk, we fused the DBPs to the homodimerization domain of the TetR protein (39), using RFdiffusion (40) and ProteinMPNN sequence design to generate rigid linkers that orient the DBP domain of each dimer unit on a DNA target containing two palindromic binding sites. For DBPs 48, 69, and 57, we selected 96 TetR fusions for experimental characterization in the NOT gate circuit. Upon initial screening, we observed modest repression for several designs and selected two for further validation (one incorporating DBP48, the other DBP57) (FIG. 8). […]
molecule,measurement,setting,value
GGCGTCAGGTGGACGCAGATTGACAGCGTCAGGTGGACGCTTATAATGAGCACTTCC (double strand) [PDBP48 synthetic promoter],activity (fold repression),[1],3.4
TCTGGATAGTGTATCCAGATTGACATCTGGAAGTATATCCAGATAATGAGCACTTCC (double strand) [PDBP57 synthetic promoter],activity (fold repression),[2],8.1
B1,Off-target binding,"13 unique dsDNA targets; yeast display screen against the 13 DNA targets, versus original DBP35",strongly decreased off-target binding
same,Fold activation of synTFs measured as normalized barcode abundance in the DNA TAPE,[3],3-5 fold
same,Number of base positions of specificity,[4],7 base positions
same,Detectable binding down to (dsDNA concentration),[5],~150 pM
B2,Number of the 13 tested DNA target sequences preferentially bound,"13 unique dsDNA targets; 1 μM dsDNA with avidity, including designed target sequence",less than 3
same,Binding specificity versus design models,13 unique dsDNA targets; all-by-all screen with Rosetta-predicted motifs,bound with specificity closely consistent with the design models
same,Binding to initial design target,"13 unique dsDNA targets; yeast surface display, 1 μM dsDNA with avidity",bound strongly
same,Binding to alternate target sequence,"13 unique dsDNA targets; yeast surface display, 1 μM dsDNA with avidity, alternate target H (DBP90), D (DBP48), C (DBP57)",bound strongly
same,Fold activation of synTFs measured as normalized barcode abundance in the DNA TAPE,[3],3-5 fold
same,Fold repression of YFP by single DBP domains and tandem linked DBP domains,[6],not observed
